Where two headings read alike, the source gives them in different places.
Legend:
[1] = target: HCV NS3 full length (bacNS3 derived) (Hepatitis C virus strain H) (UniProt P27958)
[2] = target: HCV NS3 full length (bacNS3-5B derived) (Hepatitis C virus strain H) (UniProt P27958)
[3] = target: HCV NS3 full length (bacNS3-5B derived) (Hepatitis C virus strain H) (UniProt P27958); details: Km for RNA substrate; helicase strand displacement, PIPES pH 6.5, MnCl2, 37 C

Sequence of HCV NS3 full length (bacNS3-5B derived) (Hepatitis C virus strain H) (P27958 1027-1657): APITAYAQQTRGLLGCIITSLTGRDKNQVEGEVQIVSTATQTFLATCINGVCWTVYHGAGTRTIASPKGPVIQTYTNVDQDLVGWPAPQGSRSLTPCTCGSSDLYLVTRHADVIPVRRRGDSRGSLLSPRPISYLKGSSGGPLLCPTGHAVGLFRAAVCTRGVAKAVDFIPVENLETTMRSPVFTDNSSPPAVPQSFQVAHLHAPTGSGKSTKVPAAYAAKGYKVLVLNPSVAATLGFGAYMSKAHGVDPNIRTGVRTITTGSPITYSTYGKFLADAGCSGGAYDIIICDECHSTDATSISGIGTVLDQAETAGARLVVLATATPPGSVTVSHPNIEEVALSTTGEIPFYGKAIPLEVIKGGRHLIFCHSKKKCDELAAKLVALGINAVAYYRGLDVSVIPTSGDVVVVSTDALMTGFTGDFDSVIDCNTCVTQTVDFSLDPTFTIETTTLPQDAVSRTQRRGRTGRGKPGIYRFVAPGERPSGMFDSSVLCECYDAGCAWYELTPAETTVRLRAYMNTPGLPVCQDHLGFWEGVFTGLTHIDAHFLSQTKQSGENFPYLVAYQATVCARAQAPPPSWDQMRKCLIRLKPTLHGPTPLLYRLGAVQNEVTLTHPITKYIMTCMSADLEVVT
Sequence of HCV NS3 full length (bacNS3 derived) (Hepatitis C virus strain H) (P27958 1027-1657): as above

| Substance | activity ([1]; ATPase rate with poly(U), 0 without) | activity ([2]; ATPase rate with poly(U), 23 without) | activity [3] | activity ([1]; helicase catalytic rate) | activity ([2]; helicase catalytic rate) |
| --- | --- | --- | --- | --- | --- |
| poly(U) | 659 min⁻¹ | 1050 min⁻¹ |  |  |  |
| standard RNA helicase substrate (3' and 5' single strand regions) |  |  | 0.5 nM | 0.003 min⁻¹ | 0.01 min⁻¹ |

From US20020081574
